Assay results taken from the supplement of paper PMC9112550, “Optimization of the antimicrobial peptide Bac7 by deep mutational scanning” (BMC Biology, 2022).

Tested on: Escherichia coli TOP10
Assay: shrunken log2 fold change of peptide-encoding DNA abundance (4.5 h post-induction vs induction); higher = less antimicrobial activity (less host growth inhibition)
Settings: time post-induction: 4.5 h; library: site-saturation at positions 5, 18, 19, 20
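Further: peptides expressed intracellularly from a pBAD plasmid library in pooled LB shake-flask culture, induced with 0.3% L-arabinose, DNA abundance read by NGS, three biological replicates, DESeq2 with apeglm shrinkage.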

Sequence	shrunken log2 fold change
RRIRERPPRLPRPRPRPNCFPRP	-0.195
RRIRERPPRLPRPRPRPNFPPRP	-0.169
RRIRERPPRLPRPRPRPNGDPRP	-0.0249
RRIRERPPRLPRPRPRPNGSPRP	-0.263
RRIRERPPRLPRPRPRPNHCPRP	-0.0763
RRIRERPPRLPRPRPRPNHFPRP	-0.799
RRIRERPPRLPRPRPRPNLCPRP	-0.13
RRIRERPPRLPRPRPRPNMAPRP	-0.163
RRIRERPPRLPRPRPRPNPAPRP	0.0424
RRIRERPPRLPRPRPRPNPCPRP	-0.226
RRIRERPPRLPRPRPRPNPKPRP	-0.0343
RRIRERPPRLPRPRPRPNPRPRP	0.134
RRIRERPPRLPRPRPRPNQAPRP	-0.0316
RRIRERPPRLPRPRPRPNSMPRP	-0.864
RRIRERPPRLPRPRPRPNSPPRP	-0.00647
RRIRERPPRLPRPRPRPNTRPRP	-0.0785
RRIRERPPRLPRPRPRPNTVPRP	-0.595
RRIRERPPRLPRPRPRPNVHPRP	-0.344
RRIRERPPRLPRPRPRPNVTPRP	-0.199
RRIRERPPRLPRPRPRPNWDPRP	-0.125
RRIRERPPRLPRPRPRPNWKPRP	-0.0166
RRIRERPPRLPRPRPRPNYEPRP	-0.182
RRIRERPPRLPRPRPRPNYGPRP	-0.0315
RRIRERPPRLPRPRPRPNYPPRP	-0.509
RRIRERPPRLPRPRPRPPAEPRP	0.758

Sequence	shrunken log2 fold change
RRIRERPPRLPRPRPRPPAPPRP	0.569
RRIRERPPRLPRPRPRPPATPRP	0.35
RRIRERPPRLPRPRPRPPCLPRP	-0.579
RRIRERPPRLPRPRPRPPCMPRP	-0.272
RRIRERPPRLPRPRPRPPDCPRP	0.0792
RRIRERPPRLPRPRPRPPEAPRP	0.192
RRIRERPPRLPRPRPRPPFCPRP	0.117
RRIRERPPRLPRPRPRPPHCPRP	0.118
RRIRERPPRLPRPRPRPPIGPRP	-0.144
RRIRERPPRLPRPRPRPPINPRP	-0.224
RRIRERPPRLPRPRPRPPKFPRP	-0.0978
RRIRERPPRLPRPRPRPPLRPRP	0.135
RRIRERPPRLPRPRPRPPNAPRP	0.186
RRIRERPPRLPRPRPRPPNHPRP	-0.288
RRIRERPPRLPRPRPRPPNRPRP	-0.289
RRIRERPPRLPRPRPRPPRKPRP	0.387
RRIRERPPRLPRPRPRPPSMPRP	-0.242
RRIRERPPRLPRPRPRPPTEPRP	0.0778
RRIRERPPRLPRPRPRPPTGPRP	0.161
RRIRERPPRLPRPRPRPPVYPRP	0.00394
RRIRERPPRLPRPRPRPPWQPRP	0.0988
RRIRERPPRLPRPRPRPPWTPRP	-0.0555
RRIRERPPRLPRPRPRPPYAPRP	-0.208
RRIRERPPRLPRPRPRPQAGPRP	0.275
RRIRERPPRLPRPRPRPQCQPRP	0.158

Sequence	shrunken log2 fold change
RRIRERPPRLPRPRPRPQCRPRP	-0.401
RRIRERPPRLPRPRPRPQDEPRP	-0.941
RRIRERPPRLPRPRPRPQDKPRP	-0.0918
RRIRERPPRLPRPRPRPQDTPRP	2.38
RRIRERPPRLPRPRPRPQELPRP	-0.755
RRIRERPPRLPRPRPRPQEYPRP	-0.01
RRIRERPPRLPRPRPRPQGAPRP	0.169
RRIRERPPRLPRPRPRPQHWPRP	-0.046
RRIRERPPRLPRPRPRPQIKPRP	-0.723
RRIRERPPRLPRPRPRPQLIPRP	-0.759
RRIRERPPRLPRPRPRPQNIPRP	-0.837
RRIRERPPRLPRPRPRPQNNPRP	-0.911
RRIRERPPRLPRPRPRPQPEPRP	-0.0263
RRIRERPPRLPRPRPRPQQHPRP	-0.301
RRIRERPPRLPRPRPRPQRFPRP	0.0827
RRIRERPPRLPRPRPRPQRGPRP	-0.0773
RRIRERPPRLPRPRPRPQSAPRP	-0.227
RRIRERPPRLPRPRPRPQSSPRP	-0.533
RRIRERPPRLPRPRPRPQWGPRP	-0.252
RRIRERPPRLPRPRPRPRAYPRP	-0.125
RRIRERPPRLPRPRPRPRDGPRP	0.237
RRIRERPPRLPRPRPRPREAPRP	0.419
RRIRERPPRLPRPRPRPREFPRP	-0.0736
RRIRERPPRLPRPRPRPRENPRP	-0.362
RRIRERPPRLPRPRPRPRFWPRP	0.549

Sequence	shrunken log2 fold change
RRIRERPPRLPRPRPRPRHIPRP	-0.643
RRIRERPPRLPRPRPRPRKCPRP	-0.0265
RRIRERPPRLPRPRPRPRKHPRP	0.0582
RRIRERPPRLPRPRPRPRLRPRP	0.25
RRIRERPPRLPRPRPRPRLVPRP	-0.0143
RRIRERPPRLPRPRPRPRMFPRP	0.00669
RRIRERPPRLPRPRPRPRNDPRP	-0.478
RRIRERPPRLPRPRPRPRNVPRP	-0.00139
RRIRERPPRLPRPRPRPRNYPRP	-0.491
RRIRERPPRLPRPRPRPRPFPRP	-0.0965
RRIRERPPRLPRPRPRPRRQPRP	0.00864
RRIRERPPRLPRPRPRPRRYPRP	-0.184
RRIRERPPRLPRPRPRPRTVPRP	0.0995
RRIRERPPRLPRPRPRPRVLPRP	0.161
RRIRERPPRLPRPRPRPRVTPRP	0.107
RRIRERPPRLPRPRPRPRWEPRP	0.0891
RRIRERPPRLPRPRPRPRYHPRP	-0.0105
RRIRERPPRLPRPRPRPRYTPRP	-0.244
RRIRERPPRLPRPRPRPSCHPRP	-0.934
RRIRERPPRLPRPRPRPSDCPRP	0.00151
RRIRERPPRLPRPRPRPSDWPRP	0.0574
RRIRERPPRLPRPRPRPSEEPRP	-0.0988
RRIRERPPRLPRPRPRPSEIPRP	-0.16
RRIRERPPRLPRPRPRPSEPPRP	0.227
RRIRERPPRLPRPRPRPSFCPRP	-0.593

Sequence	shrunken log2 fold change
RRIRERPPRLPRPRPRPSFGPRP	0.189
RRIRERPPRLPRPRPRPSFRPRP	-0.431
RRIRERPPRLPRPRPRPSGDPRP	-0.253
RRIRERPPRLPRPRPRPSGVPRP	-0.157
RRIRERPPRLPRPRPRPSISPRP	0.0881
RRIRERPPRLPRPRPRPSKAPRP	-0.129
RRIRERPPRLPRPRPRPSLIPRP	-2.26
RRIRERPPRLPRPRPRPSMGPRP	-0.817
RRIRERPPRLPRPRPRPSMIPRP	-0.171
RRIRERPPRLPRPRPRPSMLPRP	-0.938
RRIRERPPRLPRPRPRPSNVPRP	-0.441
RRIRERPPRLPRPRPRPSNYPRP	-1.12
RRIRERPPRLPRPRPRPSPHPRP	-0.229
RRIRERPPRLPRPRPRPSQSPRP	-0.346
RRIRERPPRLPRPRPRPSQYPRP	-0.113
RRIRERPPRLPRPRPRPSRKPRP	0.113
RRIRERPPRLPRPRPRPSSEPRP	-0.137
RRIRERPPRLPRPRPRPSTQPRP	-0.177
RRIRERPPRLPRPRPRPSVVPRP	-0.213
RRIRERPPRLPRPRPRPSVWPRP	0.0602
RRIRERPPRLPRPRPRPSWDPRP	-0.247
RRIRERPPRLPRPRPRPSWWPRP	2.26
RRIRERPPRLPRPRPRPTAMPRP	0.109
RRIRERPPRLPRPRPRPTARPRP	0.258
RRIRERPPRLPRPRPRPTDRPRP	0.0616

Sequence	shrunken log2 fold change
RRIRERPPRLPRPRPRPTESPRP	5.08
RRIRERPPRLPRPRPRPTEYPRP	-0.123
RRIRERPPRLPRPRPRPTFAPRP	-0.0119
RRIRERPPRLPRPRPRPTFGPRP	0.0107
RRIRERPPRLPRPRPRPTFNPRP	-0.24
RRIRERPPRLPRPRPRPTFRPRP	-0.00937
RRIRERPPRLPRPRPRPTFSPRP	-0.216
RRIRERPPRLPRPRPRPTHRPRP	0.243
RRIRERPPRLPRPRPRPTISPRP	-0.163
RRIRERPPRLPRPRPRPTKSPRP	-0.00427
RRIRERPPRLPRPRPRPTKYPRP	-0.568
RRIRERPPRLPRPRPRPTMDPRP	0.0537
RRIRERPPRLPRPRPRPTNLPRP	-0.0315
RRIRERPPRLPRPRPRPTNSPRP	-0.782
RRIRERPPRLPRPRPRPTPYPRP	-0.389
RRIRERPPRLPRPRPRPTQFPRP	-0.118
RRIRERPPRLPRPRPRPTRKPRP	0.0197
RRIRERPPRLPRPRPRPTRMPRP	0.084
RRIRERPPRLPRPRPRPTRWPRP	0.353
RRIRERPPRLPRPRPRPTSGPRP	0.0416
RRIRERPPRLPRPRPRPTSRPRP	0.249
RRIRERPPRLPRPRPRPTVCPRP	0.141
RRIRERPPRLPRPRPRPTVHPRP	-0.42
RRIRERPPRLPRPRPRPTVVPRP	-0.188
RRIRERPPRLPRPRPRPTWSPRP	-0.268
